Source: patent US20130089868A1

Biological target: MLS-NR2B (mitochondrial targeting signal sequence, myc-epitope, GST and NR2B residues 1271-1311) [GST: P08515]
Assay: percentage of green fluorescent HEK-293 cells with GFP clustering after Ca^2+ influx (FIG. 5)

fold increase of the cell count against wild-type GFP-α-CaMKII: > 2 fold
Substance: GFP-T286D-α-CaMKII (from UniProt P11275 1-478) (enzyme)
